Data as given in US20210284709A1 (JUNO THERAPEUTICS, published 2021).
Residue numbers refer to the chain shown, from its start.

B1: modified version of TCR 9 (TCR)
TCR alpha: AQKITQTQPGMFVQEKEAVTLDCTYDTSDPSYGLFWYKQPSSGEMIFLIYQGSYDQQNATEGRYSLNFQKARKSANLVISASQLGDSAMYFCAMRTAGGTSYGKLTFGQGTILTVHPNIQNPDPAVYQLRDSKSSDKSVCLFTDFDSQTNVSQSKDSDVYITDKCVLDMRSMDFKSNSAVAWSNKSDFACANAFNNSIIPEDTFFPSPESSCDVKLVEKSFETDTNLNFQNLSVIGFRILLLKVAGFNLLMTLRLWSS
TCR beta: NAGVTQTPKFRVLKTGQSMTLLCAQDMNHEYMYWYRQDPGMGLRLIHYSVGEGTTAKGEVPDGYNVSRLKKQNFLLGLESAAPSQTSVYFCASSYFGTAYEQYFGPGTRLTVTEDLKNVFPPEVAVFEPSEAEISHTQKATLVCLATGFYPDHVELSWWVNGKEVHSGVCTDPQPLKEQPALNDSRYCLSSRLRVSATFWQNPRNHFRCQVQFYGLSENDEWTQDRAKPVTQIVSAEAWGRADCGFTSESYQQGVLSATILYEILLGKATLYAVLVSALVLMAMVKRKDSRG
B2: modified version of TCR 8 (TCR, V domains shown)
V domain 1: KQEVTQIPAALSVPEGENLVLNCSFTDSAIYNLQWFRQDPGKGLTSLLLIQSSQREQTSGRLNASLDKSSGRSTLYIAASQPGDSATYLCAVRPLGNTPLVFGKGTRLSVIA
V domain 2: KVTQSSRYLVKRTGEKVFLECVQDMDHENMFWYRQDPGLGLRLIYFSYDVKMKEKGDIPEGYSVSREKKERFSLILESASTNQTSMYLCASSLWGASTDTQYFGPGTRLTVLE
B3: modified version of TCR 4 (TCR)
TCR alpha: DAKTTQPNSMESNEEEPVHLPCNHSTISGTDYIHWYRQLPSQGPEYVIHGLTSNVNNRMASLAIAEDRKSSTLILHRATLRDAAVYYCILLVIRGTSYGKLTFGQGTILTVHPNIQNPDPAVYQLRDSKSSDKSVCLFTDFDSQTNVSQSKDSDVYITDKCVLDMRSMDFKSNSAVAWSNKSDFACANAFNNSIIPEDTFFPSPESSCDVKLVEKSFETDTNLNFQNLSVIGFRILLLKVAGFNLLMTLRLWSS
TCR beta: DTGVSQDPRHKITKRGQNVTFRCDPISEHNRLYWYRQTLGQGPEFLTYFQNEAQLEKSRLLSDRFSAERPKGSFSTLEIQRTEQGDSAMYLCASSPGGGNTEAFFGQGTRLTVVEDLNKVFPPEVAVFEPSEAEISHTQKATLVCLATGFFPDHVELSWWVNGKEVHSGVCTDPQPLKEQPALNDSRYCLSSRLRVSATFWQNPRNHFRCQVQFYGLSENDEWTQDRAKPVTQIVSAEAWGRADCGFTSVSYQQGVLSATILYEILLGKATLYAVLVSALVLMAMVKRKDF
B4: modified version of TCR 5 (TCR, V domains shown)
V domain 1: AQKITQTQPGMFVQEKEAVTLDCTYDTSDQSYGLFWYKQPSSGEMIFLIYQGSYDEQNATEGRYSLNFQKARKSANLVISASQLGDSAMYFCAMREGTGTSYGKLTFGQGTILTVHP
V domain 2: DVKVTQSSRYLVKRTGEKVFLECVQDMDHENMFWYRQDPGLGLRLIYFSYDVKMKEKGDIPEGYSVSREKKERFSLILESASTNQTSMYLCASSPWGETHQPQHFGDGTRLSILE
B5: modified version of TCR 7 (TCR, V domains shown)
V domain 1: KNQVEQSPQSLIILEGKNCTLQCNYTVSPFSNLRWYKQDTGRGPVSLTIMTFSENTKSNGRYTATLDADTKQSSLHITASQLSDSASYICVVSRDNYGQNFVFGPGTRLSVLP
V domain 2: EPEVTQTPSHQVTQMGQEVILRCVPISNHLYFYWYRQILGQKVEFLVSFYNNEISEKSEIFDDQFSVERPDGSNFTLKIRSTKLEDSAMYFCAITDRTNYGYTFGSGTRLTVVE
B6: modified version of TCR 3 (TCR)
TCR alpha: AQKITQTQPGMFVQEKEAVTLDCTYDTSDQSYGLFWYKQPSSGEMIFLIYQGSYDEQNATEGRYSLNFQKARKSANLVISASQLGDSAMYFCAMREGRGFKTIFGAGTRLFVKANIQKPDPAVYQLRDSKSSDKSVCLFTDFDSQTNVSQSKDSDVYITDKCVLDMRSMDFKSNSAVAWSNKSDFACANAFNNSIIPADTFFPSPESSCDVKLVEKSFETDTNLNFQNLSVIGFRILLLKVAGFNLLMTLRLWSS
TCR beta: GAGVSQSPRYKVAKRGQDVALRCDPISGHVSLFWYQQALGQGPEFLTYFQNEAQLDKSGLPSDRFFAERPEGSVSTLKIQRTQQEDSAVYLCASSHLAGFTGELFFGEGSRLTVLEDLKNVFPPEVAVFEPSEAEISHTQKATLVCLATGFYPDHVELSWWVNGKEVHSGVCTDPQPLKEQPALNDSRYCLSSRLRVSATFWQNPRNHFRCQVQFYGLSENDEWTQDRAKPVTQIVSAEAWGRADCGFTSESYQQGVLSATILYEILLGKATLYAVLVSALVLMAMVKRKDSRG
B7: TCR 21 (codon-optimized, cysteine-modified) (TCR, V domains shown)
V domain 1: AQKITQTQPGMFVQEKEAVTLDCTYDTSDQSYGLFWYKQPSSGEMIFLIYQGSYDEQNATEGRYSLNFQKARKSANLVISASQLGDSAMYFCAMREGRVTGGGNKLTFGTGTQLKVEL
V domain 2: NAGVTQTPKFQVLKTGQSMTLQCAQDMNHNSMYWYRQDPGMGLRLIYYSASEGTTDKGEVPNGYNVSRLNKREFSLRLESAAPSQTSVYFCASRPWGNQNTEAFFGQGTRLTVVE
B8: TCR 27 (codon-optimized, cysteine-modified) (TCR, V domains shown)
V domain 1: DAKTTQPNSMESNEEEPVHLPCNHSTISGTDYIHWYRQLPSQGPEYVIHGLTSNVNNRMASLAIAEDRKSSTLILHRATLRDAAVYYCILRVPPQSGGYQKVTFGTGTKLQVIP
V domain 2: NAGVTQTPKFQVLKTGQSMTLQCAQDMNHNSMYWYRQDPGMGLRLIYYSASEGTTDKGEVPNGYNVSRLNKREFSLRLESAAPSQTSVYFCASSEFGSLNEKLFFGSGTQLSVLE
B9: TCR 18 (codon-optimized, cysteine-modified) (TCR, V domains shown)
V domain 1: KQEVTQIPAALSVPEGENLVLNCSFTDSAIYNLQWFRQDPGKGLTSLLLIQSSQREQTSGRLNASLDKSSGRSTLYIAASQPGDSATYLCAEGNAGGTSYGKLTFGQGTILTVHP
V domain 2: B4 V domain 2 with P95F, E98R, T99S, H100N, Q101S, Q103L, D107N, S112T, I113V, L114T
B10: TCR 17 (codon-optimized, cysteine-modified) (TCR, V domains shown)
V domain 1: AQKITQTQPGMFVQEKEAVTLDCTYDTSDPSYGLFWYKQPSSGEMIFLIYQGSYDQQNATEGRYSLNFQKARKSANLVISASQLGDSAMYFCAMREGRGDKIIFGKGTRLHILP
V domain 2: B4 V domain 2 with P95L, E98R, T99S, H100N
B11: TCR 24 (codon-optimized, cysteine-modified) (TCR, V domains shown)
V domain 1: B4 V domain 1 with T98R, T100D, Y102W, T106Q, Q109A, I112Q, L113V, T114V, H116T
V domain 2: DVKVTQSSRYLVKRTGEKVFLECVQDMDHENMFWYRQDPGLGLRLIYFSYDVKMKEKGDIPEGYSVSREKKERFSLILESASTNQTSMYLCASSPFGRGSYEQYFGPGTRLTVTE
B12: TCR 23 (codon-optimized, cysteine-modified) (TCR, V domains shown)
V domain 1: AQKITQTQPGMFVQEKEAVTLDCTYDTSDQSYGLFWYKQPSSGEMIFLIYQGSYDEQNATEGRYSLNFQKARKSANLVISASQLGDSAMYFCAMSPPGGSARQLTFGSGTQLTVLP
V domain 2: B4 V domain 2 with E98Q, T99S, H100N
B13: TCR 10 (native, clonal T cell line) (TCR, V domains shown)
V domain 1: RKEVEQDPGPFNVPEGATVAFNCTYSNSASQSFFWYRQDCRKEPKLLMSVYSSGNEDGRFTAQLNRASQYISLLIRDSKLSDSATYLCVVNFPSRGAGGTSYGKLTFGQGTILTVHP
V domain 2: B11 V domain 2 with P95L, F96S, G97L, R98T, S100N, E102G, Q103Y, Y104T, P107S, T114V

target: HLA-A2/E6(29-38) tetramer (human; HPV 16); test: cell-based or functional assay

| Binder | % CD8+/IC IFNγ+ |
| --- | --- |
| B1 | 91.1% |
| B2 | 95% |
| B3 | 94.2% |
| B4 | 43.7% |
| B5 | 70.5% |
| B6 | 95.1% |

target: HLA-A2/E7(11-19) tetramer (human; HPV 16); test: cell-based or functional assay

| Binder | % CD8+/IC IFNγ+ |
| --- | --- |
| B1 | 19.5% |
| B2 | 11.4% |
| B3 | 2.5% |
| B4 | 7.22% |
| B5 | 62.4% |
| B6 | 2.51% |

target: T1, HLA-A2/E6(29-38) tetramer (human; HPV 16); test: flow cytometry, tetramer + anti-CD8; transfected mix of CD8- and CD8+ Jurkat-derived cells;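 also: CD4+ and CD4+/CD8+ cell mixtures transiently given TCR plasmids, analysed 48 h post-transfection by flow cytometry with E6(29-38)–HLA-A*02:01 tetramer plus anti-CD8 antibody co-stain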
T1 construct: also called E6(29-38) peptide-MHC tetramer; E6 tet
Procedure: (§1) For transfection, the CD4+ and CD4+/CD8+ cell mixtures were transiently transfected with TCR-encoding plasmids and 48 hours after transfection, cells were assessed by flow cytometry for (1) binding of the target peptide in the context of an MHC molecule (HLA:A02:01) by staining with an E6(29-38) peptide- or an E7(11-19) peptide-MHC tetramer reagent, and/or (2) CD8+ independent binding of the target by co-staining the tetramer-labeled cells with an anti-CD8 antibody.

| Binder | % cells E6 tet+/CD8+ quadrant | % cells E6 tet+/CD8- quadrant |
| --- | --- | --- |
| B7 | 28.8% | 32.7% |
| B8 | 15.8% | 3.5% |
| B9 | 23.3% | 3.61% |
| B10 | 36.2% | 21.3% |
| B11 | 55% | 23.5% |
| B12 | 52.5% | 22.5% |

target: T1, HLA-A2/E6(29-38) tetramer; test: flow cytometry, tetramer + anti-CD8; transfected Jurkat-derived cells, CD8+ cells
Procedure: as §1

| Binder | % cells E6 tet+/CD8+ quadrant | % cells E6 tet+/CD8- quadrant |
| --- | --- | --- |
| B1 | 42.5% | 0.051% |
| B7 | 51.6% | 0.22% |
| B8 | 24.5% | 0.02% |
| B9 | 50.4% | 0.045% |
| B10 | 34.7% | 0.17% |
| B11 | 29.1% | 0.13% |
| B12 | 43.6% | 0.18% |

target: T1, HLA-A2/E6(29-38) tetramer; test: tetramer staining of clonal T cell line vs control

| Binder | binding result |
| --- | --- |
| B13 | binds |
